Substrate in series [1]: CC(C)=CCC/C(C)=C/CC/C(C)=C/COP(=O)(O)OP(=O)(O)O
Kind of series: Activity at Saccharomyces cerevisiae GGPPS.

Substrate in series [2]: CC(C)=CCC/C(C)=C/CC/C(C)=C/COP(=O)(O)OP(=O)(O)O
Nature of the series: Activity at human GGPPS.

In general, Km refers to the concentration of substrate that gives half-maximal velocity.

B1: Geranylgeranyl pyrophosphate synthase BTS1 (Saccharomyces cerevisiae S288c), Q12051 (protein)
chain: MEAKIDELINNDPVWSSQNESLISKPYNHILLKPGKNFRLNLIVQINRVMNLPKDQLAIVSQIVELLHNSSLLIDDIEDNAPLRRGQTTSHLIFGVPSTINTANYMYFRAMQLVSQLTTKEPLYHNLITIFNEELINLHRGQGLDIYWRDFLPEIIPTQEMYLNMVMNKTGGLFRLTLRLMEALSPSSHHGHSLVPFINLLGIIYQIRDDYLNLKDFQMSSEKGFAEDITEGKLSFPIVHALNFTKTKGQTEQHNEILRILLLRTSDKDIKLKLIQILEFDTNSLAYTKNFINQLVNMIKNDNENKYLPDLASHSDTATNLHDELLYIIDHLSEL
In the case of B1, the Michaelis constant (Km) in series [1] worked out at 3.2 µM.

B2: Geranylgeranyl pyrophosphate synthase (Homo sapiens), O95749 (protein)
chain: MEKTQETVQRILLEPYKYLLQLPGKQVRTKLSQAFNHWLKVPEDKLQIIIEVTEMLHNASLLIDDIEDNSKLRRGFPVAHSIYGIPSVINSANYVYFLGLEKVLTLDHPDAVKLFTRQLLELHQGQGLDIYWRDNYTCPTEEEYKAMVLQKTGGLFGLAVGLMQLFSDYKEDLKPLLNTLGLFFQIRDDYANLHSKEYSENKSFCEDLTEGKFSFPTIHAIWSRPESTQVQNILRQRTENIDIKKYCVHYLEDVGSFEYTRNTLKELEAKAYKQIDARGGNPELVALVKHLSKMFKEENE
In the case of B2, the Km in series [2] amounted to 0.71 µM.

Source of the values: ChEMBL document CHEMBL1145505, “Bisphosphonates target multiple sites in both cis- and trans-prenyltransferases” (Proc Natl Acad Sci U S A, 2007).
